Reference: patent US20210040184A1

How the values were obtained:
[1] = molecular target: Clade B BaL gp120 protein (HIV-1 Clade B, BaL); test: BLI (Octet), IgG on anti-hIgG Fc sensor, gp120 analyte, 1:1 fit
[2] = molecular target: Clade C DU172.17 gp120 protein (HIV-1 Clade C, DU172.17); test: as above
[3] = molecular target: HIV-1 REJO4541.67 envelope (Env) on Env.IMC.LucR virus (HIV-1 clade B); test: cell-based or functional assay
[4] = molecular target: HIV-1 DU422.1 envelope (Env) on Env.IMC.LucR virus (HIV-1 clade C); test: cell-based or functional assay
[5] = molecular target: HIV-1 X1632_S2_B10 envelope (Env) on Env.IMC.LucR virus (HIV-1 clade G); test: cell-based or functional assay
[6] = molecular target: HIV-1 AC10.0.29 envelope (Env) on Env.IMC.LucR virus (HIV-1 clade B); test: cell-based or functional assay
[7] = molecular target: HIV-1 CNE20 envelope (Env) on Env.IMC.LucR virus (HIV-1 clade BC); test: cell-based or functional assay
[8] = molecular target: HIV-1 CAP45.2.00.G3 envelope (Env) on Env.IMC.LucR virus (HIV-1 clade C); test: cell-based or functional assay
[9] = molecular target: HIV-1 DU172.17 envelope (Env) on Env.IMC.LucR virus (HIV-1 clade C); test: cell-based or functional assay

3BNC117 (antibody)
Kd [1]: 3.29 nM | fold (KD vs average of 4 runs of L1A2) [1]: 6.07 fold | koff [1]: 0.000291 s⁻¹ | kon [1]: 88500 M⁻¹ s⁻¹ | Kd [2]: 95.8 nM | fold (KD vs average of 4 runs of L1A2) [2]: 3.77 fold | koff [2]: 0.00457 s⁻¹ | kon [2]: 47700 M⁻¹ s⁻¹ | IC50 of virus neutralization (TZM-BL, luciferase) [3]: 0.07 µg/mL | IC50 of virus neutralization (TZM-BL, luciferase) [4]: > 50 µg/mL | IC50 of virus neutralization (TZM-BL, luciferase) [5]: 31.2 µg/mL | IC50 of virus neutralization (TZM-BL, luciferase) [6]: 11 µg/mL | IC50 of virus neutralization (TZM-BL, luciferase) [7]: > 50 µg/mL | IC50 of virus neutralization (TZM-BL, luciferase) [8]: 2.7 µg/mL | IC50 of virus neutralization (TZM-BL, luciferase) [9]: 1.25 µg/mL
